Literature values in patent publication US6823267B2, “Structural prediction of allosterism” (The Johns Hopkins University, priority 2000, dated 2004).

Target: glycerol kinase (Escherichia coli, UniProt P0A6F3)
Details: at 25° C.

Sequence of glycerol kinase (P0A6F3 whole entry): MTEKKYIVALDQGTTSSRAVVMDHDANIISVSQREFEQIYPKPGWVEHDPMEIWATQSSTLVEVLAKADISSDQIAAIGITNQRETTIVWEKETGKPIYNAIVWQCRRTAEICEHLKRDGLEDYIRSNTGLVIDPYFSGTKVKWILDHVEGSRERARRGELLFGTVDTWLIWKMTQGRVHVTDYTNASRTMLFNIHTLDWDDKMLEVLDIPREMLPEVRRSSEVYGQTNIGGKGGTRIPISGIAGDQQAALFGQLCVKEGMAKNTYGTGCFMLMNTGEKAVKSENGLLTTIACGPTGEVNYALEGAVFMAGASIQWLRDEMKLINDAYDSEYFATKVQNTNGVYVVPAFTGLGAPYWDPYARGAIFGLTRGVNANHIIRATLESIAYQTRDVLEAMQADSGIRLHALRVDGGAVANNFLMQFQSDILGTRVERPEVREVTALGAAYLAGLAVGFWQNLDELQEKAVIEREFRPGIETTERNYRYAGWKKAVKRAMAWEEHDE

B1: IIAGlc: protein that is an allosteric inhibitor of the enzyme glycerol kinase (protein, UniProt P69783 2-169, looked up)
PTS system glucose-specific …: GLFDKLKSLVSDDKKDTGTIEIIAPLSGEIVNIEDVPDVVFAEKIVGDGIAIKPTGNKMVAPVDGTIGKIFETNHAFSIESDSGVELFVHFGIDTVELKGEGFKRIAEEGQRVKVGDTVIEFDLPLLEEKAKSTLTPVVISNMDEIKELIKLSGSVTVGETPVIRIKK
  association constant of IIAGlc to glycerol kinase: ~10^5 M^−1
